# In the supplement of paper PMC9732359:
# ± gives the uncertainty stated by the source.
# Experiment: protein stability index of a GFP-peptide fusion (yeast GPS) (PSI 1-4); higher = more stable; sorted into four equal gates, so the index is relative within each strain
# Outline: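 Tiled 17-residue peptides from yeast proteins were fused downstream of GFP on a plasmid that also expresses Cherry, and the pooled library was carried in yeast. Mid-log cultures grown in leucine-free medium were sorted into four equal gates by GFP/Cherry fluorescence ratio. Plasmids from each gate were PCR-amplified and Illumina-sequenced, and reads were assigned to strains by barcodes. Each peptide's protein stability index is the sum, over gates, of the gate's read frequency multiplied by its gate number.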
Sequence,protein stability index (doa10∆),protein stability index (pdr5∆),protein stability index (san1∆),protein stability index (ubr1∆)
SMDTKKKHKQKKVLEID [BRN1],3.36 ± 0.063,3.32 ± 0.057,3.32 ± 0.039,3.33 ± 0.044
NSNINTLTASPDGTLIA [ASC1],2.88 ± 0.078,2.68 ± 0.061,2.88 ± 0.061,2.82 ± 0.046
WLEQFLSCVKNDTISED [NUT1],1.73 ± 0.046,1.51 ± 0.04,1.36 ± 0.059,1.54 ± 0.035
NLNTDKLKNNASRSQLE [YJL039C/NUP192],2.22 ± 0.13,2.69 ± 0.065,2.81 ± 0.11,2.69 ± 0.064
NVRALYMRLWEINETEF [RMP1],3 ± 0.24,–,–,–
LPPPEDVAFLKTAYSIY [RPN1],2.4 ± 0.06,2.36 ± 0.052,2.46 ± 0.069,2.47 ± 0.053
ESMDFLVLADAFDIELS [YCS4],2.32 ± 0.039,2.82 ± 0.043,2.64 ± 0.055,2.64 ± 0.039
RNSYPASFYSVNTEKKT [RPN3],3.4 ± 0.29,3.06 ± 0.13,2.82 ± 0.068,3.46 ± 0.14
KLKQLLDESSEQKNTAK [YIL149C/MLP2],3.02 ± 0.11,3.22 ± 0.11,2.6 ± 0.17,2.99 ± 0.065
NDFNDLNIDWSTTGDNG [MED2],2.84 ± 0.05,2.86 ± 0.051,2.84 ± 0.046,2.73 ± 0.042
RIHTNDNDIMNLGSRTK [SSN3],3.08 ± 0.048,2.97 ± 0.043,2.95 ± 0.035,3.03 ± 0.037
ATGHRVLIFFQMTQIMD [SNF2],1.84 ± 0.082,2.51 ± 0.069,2.72 ± 0.094,2.64 ± 0.13
SIVHINSQERVQDLGSA [SIR2],2.65 ± 0.069,3.14 ± 0.064,2.99 ± 0.067,2.59 ± 0.048
NLSSTPMETLLSGLSAD [YML031W/NDC1],2.42 ± 0.075,2.59 ± 0.071,2.53 ± 0.055,2.42 ± 0.038
SYSGYDIEDALVLNKSS [RET1],2.4 ± 0.059,2.63 ± 0.052,2.18 ± 0.071,2.45 ± 0.047
VQDCRYSLASVTLKGAK [POP1],2.35 ± 0.041,2.68 ± 0.051,2.61 ± 0.04,2.56 ± 0.049
LLVLLQDVIKVLYQSNA [SWP82],1.84 ± 0.074,2.03 ± 0.084,1.72 ± 0.12,1.7 ± 0.054
NRQQKKRRFDPSSSDSN [RRP6],2.77 ± 0.056,2.69 ± 0.078,3.05 ± 0.053,3.19 ± 0.067
TFAKSKNYSRPSTAIHT [SIR4],2.03 ± 0.099,1.79 ± 0.066,1.53 ± 0.1,2.15 ± 0.05
SLLLAHFFSKSCSFFAK [NUT1],1.83 ± 0.057,1.62 ± 0.043,1.61 ± 0.074,1.68 ± 0.039
VITPHFITNVQSISQNS [SWI1],1.85 ± 0.11,2.45 ± 0.11,2.2 ± 0.14,1.73 ± 0.073
SKDGLPNKVKTEDIRIR [RRP6],2.67 ± 0.063,2.91 ± 0.076,2.76 ± 0.067,2.73 ± 0.046
DPIWQHQSLGPDGLGEV [RET1],2.96 ± 0.11,3.13 ± 0.11,3.04 ± 0.11,3.35 ± 0.15
DDFDMLFGENDTSTQAY [NUT1],3.42 ± 0.08,3.37 ± 0.071,3.51 ± 0.053,3.2 ± 0.055
LSDRITGNFIIPSGNVW [PRP8],2.76 ± 0.1,3.1 ± 0.087,2.84 ± 0.064,2.9 ± 0.065
ESDETTTDNNNSGNSNS [RPT1],3.12 ± 0.094,3.11 ± 0.098,2.66 ± 0.22,3.13 ± 0.051
